Consider 3 molecules from patent publication US20220281980A1.

Several values for one entry are separate records, joined by “and”; a condition that tells them apart may be missing. Identical values can stand only once.

Experiment [1] addresses human MICA/B endogenously expressed on A2058 cells (MICA alleles *008/*018) (human) (UniProt Q29983). Briefly: flow cytometry, tumor cells with endogenous MICA/B.
The target of experiment [2] is overexpressed human MICA*008 and MICB*005 on CHO cells. In words: Scatchard analysis, 125I-MICA.36 on transduced CHO cells.
Experiment [3] addresses overexpressed cyno MICA/B (CHO clones #4 and #6). Described as above.

Usually EC50 stands for the concentration that produces a half-maximal response. Usually Kd stands for the concentration at which binding is half-saturated. Low values mean tighter binding, high ones weaker binding.

B1: 19G6 (antibody, V domains shown)
VH: QVQLVESGGGVVQPGRSLRLSCAASGFTFSNYAMHWVRQAPGEGLEWVALIWYDGSNKFYGDSVKGRFTISRDNSKNTLYLQMNSLSAEDTAVYYCAREGSGHYWGQGTLVTVSS
VL: AIQLTQSPSSLSASVGDRVTITCRASQGISSALAWYQQKPGKVPKSLIYDASSLESGVPSRFSGSGSGTDFTLTISSLQPEDFATYYCQQFNSYPITFGQGTRLEIK
For the molecule B1, the EC50 in experiment [1] came out at 5.39 nM.

B2: MICA.36 (antibody, V domains shown)
VH: QVQLVESGGGVVQPGRSLRLSCAASGFTFSNYAMHWVRQAPGEGLEWVALIWYDGSNKFYGDSVKGRFTISRDNSKNTLYLQMNSLSAEDTAVYYCAREGSGHYWGQGTLVTVSS
VL: AIQLTQSPSSLSASVGDRVTITCRASQGISSALAWYQQKPGKVPKSLIYDASSLESGVPSRFSGSGSGTDFTLTISSLQPEDFATYYCQQFNSYPITFGQGTRLEIK
On to B2, for which the dissociation constant (Kd) in experiment [2] was 1 to 2 nM; in experiment [3] it was 5 to 11 nM.

B3: 16A5 (antibody, V domains shown)
VH: QVQLVESGGDVVQPGRSLRLSCAASGFTFSNYNIHWVRQAPGKGLEWVAVIRYDGINKYYADSVKGRFIISRDNSKNTLYLQMNSLRAEDTAVYYCASGPPDAFNIWGQGTMVTVSS
VL: AIQLTQSPSSLSASVGDRVTITCRASQGISSALAWYQQKPGKVPKSLIYDASSLESGVPSRFSGSGSGTDFTLTISSLQPEDFATYYCQQFNSYPITFGQGTRLEIK
As to B3, the EC50 in experiment [1] is 7.68 nM and 10.9 nM.
